We go through one substance from publication doi:10.1101/2020.04.20.051433.

This assay deals with Cpn60 (chloroplast chaperonin) of pea stroma (P. sativum (endogenous in pea chloroplasts)). Description: native gel or EMSA. A general note: In EMSA bound probe runs differently from free probe, usually more slowly.

Substance “Plsp1 Δβ1-2 imported into isolated chloroplasts (from UniProt Q8H0W1 68-291) (domain or fragment)” gave a reduction of the 700-kDa band against full-length Plsp1 of 80%.
